Experimental data as given in article PMC7060329, “Pathway-specific enzymes from bamboo and crop leaves biosynthesize anti-nociceptive C-glycosylated flavones” (Communications Biology, 2020).

T1: SbF2H (CYP93G3; SbCYP93G3) (Sorghum bicolor, UniProt C5X6I4)
T1 construct: gene SORBI_3002G000400; N-terminal transmembrane region cut (borders not in text) and replaced with 2B1dH tag; codon-optimized; in E. coli with AtCPR2
T1 sequence (C5X6I4 42-541 limits assumed): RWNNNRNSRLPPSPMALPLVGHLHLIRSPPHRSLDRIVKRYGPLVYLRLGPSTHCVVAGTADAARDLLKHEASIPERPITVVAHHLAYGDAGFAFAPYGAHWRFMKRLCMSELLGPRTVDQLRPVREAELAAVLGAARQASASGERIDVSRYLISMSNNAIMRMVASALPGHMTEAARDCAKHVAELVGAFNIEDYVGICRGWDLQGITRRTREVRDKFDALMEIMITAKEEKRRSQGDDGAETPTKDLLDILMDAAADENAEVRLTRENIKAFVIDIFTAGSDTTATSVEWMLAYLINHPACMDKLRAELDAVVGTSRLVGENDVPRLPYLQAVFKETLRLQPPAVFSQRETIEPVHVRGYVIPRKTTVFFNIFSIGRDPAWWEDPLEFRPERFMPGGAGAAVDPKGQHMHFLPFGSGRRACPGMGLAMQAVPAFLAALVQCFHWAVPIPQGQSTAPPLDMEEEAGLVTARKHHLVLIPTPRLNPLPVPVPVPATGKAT

B1: PhUGT708A43 (PhCGT1) (Phyllostachys edulis) (protein)
chain: MPTSGGRTGDRPHVILLPSAGMGHLVPFSRLAVALSSGHGCDVSVVAVLPTVSAAESRHLQGLLDASPAVRRLDLHLAPFDESEFPGADPFFLRFEAMRRSAPLLGPLLADTGASALVTDIALASVVIPVAKEIHLPCYVLFTASAAMLSFCAYFPTYLDTNAGRVVGDVDIPGVYRIPKASIPQALHDPNHLFTRQFVANGQDLAKADGVLVNTFDALELEAVTALRQGSVAAGFPPVFSVGPLVTVNLPAGEAAKESGNDYMYWLDAQPAQSVVYVSFGSRKAISRDQVRELAIGLEASGQPFLWVVKSTVVDRDDSAELSELLGEGFLERVQGQGFVTKAWVEQEEVLKHESIGLFISHCGWNSVTEAAASGVPVLAWPRFGDQRVNAGVVARGGLGVWVERWSWEGEEDVVSGEEIAEKVKAVMADETVRKKAASVGEAAVKEFADGGTSYRSLTEFVRRCRDLAVLD
notes: full-length ORF, pET28a (pCZ86), recombinant from E. coli, purified

Columns and labels:
[1] = target: T1, SbF2H (CYP93G3; SbCYP93G3); assay: E. coli whole-cell conversion, LC-MS of downstream vitexin/isovitexin; type: cell-based; settings: coexpressed AtCPR2 and PhUGT708A43; naringenin made in vivo, 22 °C
[2] = substrate: O=C1CC(O)(c2ccc(O)cc2)Oc2cc(O)cc(O)c21; assay: HPLC of C-glucoside product, Michaelis-Menten fit; type: biochemical, Phyllostachys edulis; settings: 400 μM UDP-glucose, 100 mM NaCl, 20 mM Tris-HCl pH 8.0, 37 °C, 20 min
[3] = substrate: O=C(CCc1ccc(O)cc1)c1c(O)cc(O)cc1O; assay: HPLC of C-glucoside product, Michaelis-Menten fit; type: biochemical, Phyllostachys edulis; settings: 400 μM UDP-glucose, 100 mM NaCl, 20 mM Tris-HCl pH 8.0, 37 °C, 20 min

Molecule	E. coli whole-cell conversion, LC-MS of downstream vitexin/isovitexin [1]	Km [2]	Km [3]
O=C1C[C@@H](c2ccc(O)cc2)Oc2cc(O)cc(O)c21 [Nar, naringenin]	truncated ZmF2H/AtCPR2 (sCZ2) and truncated SbF2H/AtCPR2 (sCZ29)	–	–
B1	–	1.75 ± 0.66 µM	15.83 ± 6.98 µM
